± gives the standard error. Variants at the floor of the assay were thinned out.
B1: glmS ribozyme (parent)
chain: AUAAAAGCGCCAGAACUACAGAAAUGUAGUUGACGAGGAGGAGGUUUAUCGAAUUUUCGGCGGAUGCCUCCAAA

How the values were obtained:
Conditions in all cases: with glucosamine-6-phosphate
glucosamine-6-phosphate [1] = variants of: B1; test: self-cleavage kobs at 640 uM GlcN6P; higher = faster cleavage; RNA array
Outline: (§1)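 Tiles bearing barcoded ribozyme variants, transcribed in situ by E. coli RNA polymerase on sequenced MiSeq chips, were imaged over ~14 h at 37 °C using a hybridised Cy3 probe. Glucosamine-6-phosphate was supplied at 40 μM to 10 mM in HEPES/KCl/Mg(OAc)2 buffer. kobs came from one- or two-exponential decay fits to normalised per-tile medians, and weighted Michaelis–Menten fits then provided kcat and KM.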

glucosamine-6-phosphate [2] = variants of: B1; test: self-cleavage kobs at 2500 uM GlcN6P; higher = faster cleavage; RNA array
Outline: as §1

glucosamine-6-phosphate [3] = variants of: B1; test: self-cleavage kobs at 10000 uM GlcN6P; higher = faster cleavage; RNA array
Outline: as §1

Variant	self-cleavage kobs at 640 uM GlcN6P (glucosamine-6-phosphate [1]) [s⁻¹]	self-cleavage kobs at 2500 uM GlcN6P (glucosamine-6-phosphate [2]) [s⁻¹]	self-cleavage kobs at 10000 uM GlcN6P (glucosamine-6-phosphate [3]) [s⁻¹]
G40C U56C A64C C70A	< 1e-05		
C11U G13U A14G G38C	< 1e-05		
A39U A42C U49G	< 1e-05		
A15C U30A U31C A48U		7.36e-05 ± 3e-05	
C10A G51C A52U C70U	< 1e-05		
G35A A48C U54A C70A	< 1e-05		< 1e-05
A6C C16G G32U A33G G38U	< 1e-05		< 1e-05
G38C U57A G63U		< 1e-05	
G43C G44A C68A	< 1e-05	< 1e-05	
C58G G59U C68G	4.54e-05 ± 1.7e-05		
G29A U45C U46G A53C C67G U69G	< 1e-05	< 1e-05	
U47A U49G	3.82e-05 ± 1.4e-05	7.57e-05 ± 1.8e-05	
G40A U57C C58A C61U	< 1e-05		
A15U G38U G40C A52U C58U C61G	< 1e-05		
A39C G40U G44A U55C U65G	< 1e-05	< 1e-05	
U49C U65C U69A	< 1e-05	< 1e-05	
G29U A33U G43C G60C G62U C71G	< 1e-05	< 1e-05	
A42G G51U C70U	< 1e-05		
G9A G32C C61U	< 1e-05		< 1e-05
G32U G41U A52G G60A	< 1e-05		
A6C A33G U46C C61G	< 1e-05	< 1e-05	
G29C U56A C71A	4.27e-05 ± 1.8e-05		
G13C G29A G40C	< 1e-05		

Variant	self-cleavage kobs at 640 uM GlcN6P (glucosamine-6-phosphate [1]) [s⁻¹]	self-cleavage kobs at 2500 uM GlcN6P (glucosamine-6-phosphate [2]) [s⁻¹]	self-cleavage kobs at 10000 uM GlcN6P (glucosamine-6-phosphate [3]) [s⁻¹]
C61G G62A	< 1e-05	< 1e-05	
G51A U54C U55G	< 1e-05		
G37A U55C U56G	0.000171 ± 5.1e-05		
A6G A39U C70A	< 1e-05		
A14C U69C C71U	4.76e-05 ± 8.5e-06	0.000131 ± 1.4e-05	
C10A U69A	0.00013 ± 1.9e-05	3.89e-05 ± 1.5e-05	
U54G G66C	0.000405 ± 6.3e-05		0.00079 ± 0.00012
G7U G41C C58A	< 1e-05	< 1e-05	
G32C U54C G63U		< 1e-05	
U55A C67A C68U	8.42e-05 ± 2.6e-05	0.000218 ± 4e-05	0.000108 ± 2.8e-05
U45G U46G U55C G63A	< 1e-05	< 1e-05	
G9C A12C G13U G44U C67A	< 1e-05		
C8U A64G C67G	< 1e-05		
G9C A14U G29C		< 1e-05	
G13C G43U G59U	< 1e-05	< 1e-05	
A33U G35C G63U	< 1e-05	< 1e-05	
A15U A42C C67U C70G	< 1e-05	< 1e-05	
A12U U46C A52G A53G	0.000183 ± 4.4e-05	0.00036 ± 8.9e-05	
A15G C16A U30A A64G	0.000408 ± 0.00011	0.00162 ± 0.00041	
G13C A14C C71U	4.16e-05 ± 1.1e-05	0.000105 ± 1.7e-05	
C10A A12C G63C C71G	< 1e-05		
A6U G35C C68G C70U	0.000713 ± 0.00023		
G29C A36C C61A	< 1e-05	< 1e-05	

Variant	self-cleavage kobs at 640 uM GlcN6P (glucosamine-6-phosphate [1]) [s⁻¹]	self-cleavage kobs at 2500 uM GlcN6P (glucosamine-6-phosphate [2]) [s⁻¹]	self-cleavage kobs at 10000 uM GlcN6P (glucosamine-6-phosphate [3]) [s⁻¹]
G40U C50U G63A C67A	< 1e-05	< 1e-05	
C8U U31G G35U G44A C70U	< 1e-05	< 1e-05	
U45G G66C	0.000414 ± 0.00017	0.000927 ± 0.00042	0.00369 ± 0.00067
G29C A33U G35C A52U	< 1e-05	< 1e-05	
A12C G26A G51U A53G C68G	0.000191 ± 5.2e-05	0.000139 ± 4.6e-05	
U30C U47G	6.62e-05 ± 2.2e-05	3.09e-05 ± 1.1e-05	2.83e-05 ± 6e-06
U31G G41U U47G	7.13e-05 ± 2e-05	0.000232 ± 5.7e-05	
G35A G37A U46A G51C G59U	< 1e-05	< 1e-05	
C8G G41U C61A	< 1e-05		
G7U G9U U31A G37A A52C C67U U69C	< 1e-05		
A6C G41U C58U C68U		< 1e-05	
A33G G38U U49C C71U	< 1e-05	< 1e-05	
C50G C61U C67U	0.000213 ± 4.4e-05		
C50G U65G U69A	0.000101 ± 2.1e-05		
A39U U46G C50U U54C	< 1e-05		
U30G A39U U65C	0.000103 ± 3.8e-05		0.000419 ± 6.3e-05
C16A U54C G59U	< 1e-05		
C11A G32A G66U	< 1e-05		
C8G G9U C10G	< 1e-05		
G7U G9C U47A U56G G59U C70A		< 1e-05	
C8U G9U C68A	< 1e-05	< 1e-05	
U31C G37A A53G	5.04e-05 ± 8.3e-06	0.000126 ± 2e-05	
G37C C68U U69G	6e-05 ± 2e-05		

Variant	self-cleavage kobs at 640 uM GlcN6P (glucosamine-6-phosphate [1]) [s⁻¹]	self-cleavage kobs at 2500 uM GlcN6P (glucosamine-6-phosphate [2]) [s⁻¹]	self-cleavage kobs at 10000 uM GlcN6P (glucosamine-6-phosphate [3]) [s⁻¹]
G41A G44A G60A	< 1e-05		
A6G A52G G62C		< 1e-05	
G9A G35A C58U C71U	< 1e-05		
A42G G43A U46G G66U	< 1e-05	< 1e-05	
G13A C16G A36C G41U A52U	< 1e-05		
G40U U46C A53U	0.000351 ± 0.00012		0.000745 ± 0.00019
A6G U31G G37U	< 1e-05	< 1e-05	
C34A G44C C58U	< 1e-05	< 1e-05	
G51U G63A C68G	9.2e-05 ± 3e-05		
C58G C68A U69G	0.000107 ± 3.5e-05	5.37e-05 ± 2.4e-05	
G7U G9A A14U U55C	< 1e-05		
A14C C34A U46G	< 1e-05	< 1e-05	
A39U G41U U47A A52C	< 1e-05	< 1e-05	
A36G G37C U46C	< 1e-05	< 1e-05	
G35C G38A U69G	0.00083 ± 0.00024		
A18C G35U U57A	< 1e-05		
C11A C16U U69G	0.000429 ± 0.00014		
G7A G40U C58U	< 1e-05	< 1e-05	
A42G G43A G44C	< 1e-05	< 1e-05	
C11U G41C U54G G59C	< 1e-05		
A52C A53U U55A U65A	< 1e-05	< 1e-05	
C8U A15C A33U G37C C71G	5.18e-05 ± 2.5e-05		
C11G G35C A52U	< 1e-05		

Variant	self-cleavage kobs at 640 uM GlcN6P (glucosamine-6-phosphate [1]) [s⁻¹]	self-cleavage kobs at 2500 uM GlcN6P (glucosamine-6-phosphate [2]) [s⁻¹]	self-cleavage kobs at 10000 uM GlcN6P (glucosamine-6-phosphate [3]) [s⁻¹]
A36G G43A G59U	< 1e-05	< 1e-05	
U17G G62U	< 1e-05		
G44C C58G C61G	< 1e-05		
C8G G13A U56C	< 1e-05		
G7U C8A G13A	< 1e-05		
G44A U47G	5.51e-05 ± 2.3e-05	0.00011 ± 3.2e-05	0.000111 ± 2.2e-05
G9U G13U A14G G37A G60C C71U		< 1e-05	
A15G U45C U57C	< 1e-05		
U31C A42G G66A	0.000315 ± 9.6e-05	0.00117 ± 0.00033	
G13U C50G C67G	0.000305 ± 0.00014	7.52e-05 ± 1.5e-05	
U30G U31A U65A	0.000791 ± 0.00013	0.000896 ± 0.00022	
C61G C68U U69A	< 1e-05		
C10G A39G G66A C67U C71G		7e-05 ± 3.1e-05	
A6U A12U G37U	< 1e-05		
A12C G32A U54G	2.31e-05 ± 1.1e-05	3.03e-05 ± 9.9e-06	0.00014 ± 2.3e-05
U30G C34A C68A	< 1e-05		
U31C G66A C68A U69G	7.97e-05 ± 4e-05	4.91e-05 ± 1.6e-05	
A48G C50U A52U C70G	4.03e-05 ± 2e-05		
A14C G44A A64U	< 1e-05		
G7C G13A G43C G51C A52G C58A G66C C68A	< 1e-05		
U55A U65C C68U	0.000206 ± 8.7e-05	0.000114 ± 3.5e-05	
G32A C58G C68U	5.31e-05 ± 2.4e-05	8.37e-05 ± 2.3e-05	
A6U G9C C16G C71U	< 1e-05		

Variant	self-cleavage kobs at 640 uM GlcN6P (glucosamine-6-phosphate [1]) [s⁻¹]	self-cleavage kobs at 2500 uM GlcN6P (glucosamine-6-phosphate [2]) [s⁻¹]	self-cleavage kobs at 10000 uM GlcN6P (glucosamine-6-phosphate [3]) [s⁻¹]
G37C U45G G63U	< 1e-05	< 1e-05	
A36U U45A C50U U54C U57A	< 1e-05	< 1e-05	
C8U C58U	< 1e-05		
C11A A39U U45C G51C C61U	< 1e-05	< 1e-05	
C34G U45A U57C	< 1e-05		
G37A U49A G66A	< 1e-05		
A12C U47C G60U	< 1e-05		
G59U G62A	< 1e-05		< 1e-05
C8U U46G C61A C68U	< 1e-05		
G35U U47A	< 1e-05	< 1e-05	
A33U C34G U49A A53U	< 1e-05		< 1e-05
C8G A14C G29C C34A C67U	< 1e-05		
A42C U49G C58A	< 1e-05	< 1e-05	
A6U C67G C71A		< 1e-05	
C11U A42U U55G G63U C68U	< 1e-05	< 1e-05	
A36C G40U U54A G63U	< 1e-05	< 1e-05	< 1e-05
A33U G41A G44A A64U	< 1e-05	< 1e-05	< 1e-05
U47A G63A	< 1e-05		
A6G G7A C11G G32A U45G	< 1e-05		
C8A G32A G66U	< 1e-05		
G13U C16A A39G G40U C68G	< 1e-05	< 1e-05	

— the supplement of paper PMC7125110
